Reference: article PMC3418249, “Binding of Translationally Controlled Tumour Protein to the N-Terminal Domain of HDM2 Is Inhibited by Nutlin-3” (PLoS ONE, 2012)
No end group written: not given here. FAM = carboxyfluorescein

How the values were obtained:
Conditions in all cases: both partners purified
purified HDM2 (1–125) [1] = target: T1, purified HDM2 (1–125) (human, UniProt Q00987 1-125); test: fluorescence polarisation; competition: 50 nM FAM-12-1 peptide, 250 nM HDM2 (1–125), competitors TH2/TH3 (50/200/600 µM), control peptide (600 µM), Nutlin-3 (200 µM), p53 peptide; PBS-0.005% Tween-20
T1 construct: source: expressed as GST fusion (pGEX-6P-1), purified (GSTrap, on-column cleavage with precission protease, monoS)

purified HDM2 (1–125) [2] = target: T1, purified HDM2 (1–125); test: pull-down; biotinylated peptides (10 µg) on streptavidin Dynabeads M-280, incubated with purified HDM2 (1–125) (15 µM) or TCTP (15 or 30 µM) 4 h at 4°C; Western blot; repeated with DMSO or Nutlin-3 (2/20/200 µM)
[3] = target: T2, recombinant full-length TCTP, purified (human (cDNA from AGS cells), UniProt P13693 1-172); test: pull-down; cobalt beads coated with 20 µM his-tagged HDM2 (17–125), 4 h at 4°C with 7 µM TCTP protein, with or without 200 µM Nutlin-3; Western blot
T2 construct: TCTP, called recombinant full-length TCTP; also called recombinant TCTP; TCTP protein; source: expressed as GST fusion (pGEX-6P-1), purified (GSTrap, on-column cleavage with precission protease, monoQ)
T2 sequence (looked up): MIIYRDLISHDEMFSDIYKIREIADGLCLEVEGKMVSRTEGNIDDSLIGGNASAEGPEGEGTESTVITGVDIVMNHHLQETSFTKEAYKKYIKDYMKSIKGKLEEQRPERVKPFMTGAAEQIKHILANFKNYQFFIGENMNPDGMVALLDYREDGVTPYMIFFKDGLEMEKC

[4] = target: T2, recombinant full-length TCTP, purified; test: pull-down; biotinylated peptides (10 µg) on streptavidin Dynabeads M-280, incubated with purified HDM2 (1–125) (15 µM) or TCTP (15 or 30 µM) 4 h at 4°C; Western blot; repeated with DMSO or Nutlin-3 (2/20/200 µM)

B1: carboxyfluorescein (FAM) labeled 12-1 peptide (peptide)
peptide: {FAM}-RFMDYWEGL-NH2
notes: also called FAM-labeled p53 peptide (12.1); fluorescently labelled p53 peptide
Purified HDM2 (1–125) [1]
  binding result: binds

B2: TH2 peptide (TCTP residues 81–110) (peptide)
peptide: GGGSTSFTKEAYKKYIKDYMKSIKGKLEEQRPER
modifications: also: biotin, position not given here
notes: spacer at the N-terminus; TCTP residues 81-110; source: synthetic peptide (Mimotopes)
Purified HDM2 (1–125) [2]
  binding result: binds

B3: TH3 peptide (TCTP residues 107–133) (peptide)
peptide: GGGSRPERVKPFMTGAAEQIKHILANFKNYQ
modifications: also: biotin, position not given here
notes: spacer at the N-terminus; source: synthetic peptide (Mimotopes)
Purified HDM2 (1–125) [2]
  binding result: binds

B4: recombinant his-tagged HDM2 (residues 17–125) (domain or fragment, human, UniProt Q00987 17-125, looked up)
chain: SQIPASEQETLVRPKPLLLKLLKSVGAQKDTYTMKEVLFYLGQYIMTKRLYDEKQQHIVYCSNDLLGDLFGVPSFSVKEHRKIYTMIYRNLVVVNQQESSDSGTSVSEN
notes: also called recombinant HDM2 N-terminal domain; source: recombinant
[3]
  binding result: binds

B5: HDM2 α2 helix peptide (residues 43–65) (peptide)
peptide: GGGSAQKDTYTMKEVLFYLGQYIMTKR
modifications: biotin (position not given)
notes: spacer at the N-terminus; HDM2 α2 helix, residues 43-65; source: synthetic peptide (Mimotopes)
[4]
  binding result: binds
